B1: Nb157: THP-1 specific llama nanobody binding CD13, SEQ ID NO: 19 (protein)
VHH: AAQAAQVQLQESGGGLVQPGGSLSLSCTASGFTFSSYSMAWVRQAPGKGPEWVSGIYPSDGKTRYADFVKGRFSISRDNAKNMLYLQMNNLEPEDTALYYCARGITGLGPRGQGTQVTVSSAA
modifications: VHH157
B2: Nb157-N-PNE: Nb157 with N-terminal PNE; inducible nanobody switch (protein)
chain: B1 VHH
modifications: left off: small tags and cut ends
notes: Nb157 with N-terminal PNE; inducible nanobody switch
B3: Nb163: THP-1 specific llama nanobody binding CD13, SEQ ID NO: 24 (protein)
VHH: AAQAAQVQLQESGGGLVQPGGSLRLSCVPSGFTFDGYLIGWFRQAPGSERKAVSCISVNGDRTNYADSVKGRFTISRDNAKNTVYLQMNSLRPNDTAIYYCATRRGNRLYNNNCPYFEYGTWGQGTQVTVSSAA
modifications: VHH163
B4: VLV: VHH1 homodimer connected by a linker (protein)
VHH 1: QVQLQESGGGLVQPGGSTRLSCVSSRTFSYYDMGWFRQAPGKEREFVALLSWNGENAEYSDSVMGRFTVSRGNTQNSVNLQMNNLKPEDTGIYYCAVTHGGARSVRSWGQGTQVTVSS
VHH 2: B4 VHH 1
modifications: left off: small tags and cut ends
notes: VHH1 homodimer connected by a linker

Tests used:
THP-1 cells [1] = assay: Flow cytometry binding of nanobodies to THP-1 cells; set-up: species or system human
Excerpt: FIGS. 1A-1C are series of images and graphs depicting the steps for generating nanobodies that both differentially bind tumor cells and empower CAR T cells to kill the tumor cells. FIG. 1A: Flow chart of AML specific CAR compatible nanobodies in vivo screening. Llama was immunized with AML cell line THP-1. Nanobody library was generated from the llama PMBC including B cells by molecular cloning. Two rounds of conventional cell-based phage display were applied, which took T-ALL cell line Jurkat or chronic myelogenous leukemia (CML) cell line K-562 as negative absorption, followed by one round of count-selection. The resultant THP-1 specific nanobodies were inserted into a chimeric antigen receptor expressing lenti-vector to generate Nb-CAR library. Human primary T cells were transduced by the Nb-CAR library and injected into THP-1 or K562 borne NSG mice to perform the in vivo selection. Nbs that can adapt T cells to enrich in the tumor were PCR-amplified and sequenced. […]
FIGS. 6A-6H are series of images and graphs depicting that Nb switch-activated CAR T cells eradicate AML in vivo in a controllable manner. […] The engraftment volumes were monitored by measuring the lengths and widths of the tumors. […] The primary leukemia or CAR T cells in the mouse peripheral blood were monitored by staining with CD33 or CD3 fluorescence labeled antibodies.

Jurkat cells = assay: Flow cytometry binding of nanobodies to Jurkat cells; set-up: species or system human
Excerpt: (§1) FIGS. 1A-1C are series of images and graphs depicting the steps for generating nanobodies that both differentially bind tumor cells and empower CAR T cells to kill the tumor cells. FIG. 1A: Flow chart of AML specific CAR compatible nanobodies in vivo screening. Llama was immunized with AML cell line THP-1. Nanobody library was generated from the llama PMBC including B cells by molecular cloning. Two rounds of conventional cell-based phage display were applied, which took T-ALL cell line Jurkat or chronic myelogenous leukemia (CML) cell line K-562 as negative absorption, followed by one round of count-selection. The resultant THP-1 specific nanobodies were inserted into a chimeric antigen receptor expressing lenti-vector to generate Nb-CAR library. Human primary T cells were transduced by the Nb-CAR library and injected into THP-1 or K562 borne NSG mice to perform the in vivo selection. Nbs that can adapt T cells to enrich in the tumor were PCR-amplified and sequenced. FIG. 1B: 10 million THP-1 cells or 5 million K562 cells were transplanted into NSG mice subcutaneously, followed by treatment of untransduced (UTD) T cells or Nb-lib-CAR T cells. 2 weeks later, Nbs from tumor infiltrated T cells were isolated and identified by PCR amplification. FIG. 1C: Top 5 frequent Nbs in the THP-1 tumor were listed and tested for their recognition to the THP-1 cells, Jurkat cells, or K-562 cells.

K562 cells = assay: Flow cytometry binding of nanobodies to K562 cells; set-up: species or system human
Excerpt: as §1

[2] = tested on: other AML cell lines like HL60, NB4, and U937; assay: Recognition of other AML cell lines by THP-1 specific Nbs; format: binding, human
Protocol: FIG. 7 is series of a table and graphs depicting the affinity test of VHHs against variant of AML cell lines and patient derived AMLs. The four THP-1 specific Nbs were tested for their recognition to other AML cell lines. + was <0.5 log shift, ++ was <1.0 log shift, +++ was <1.5 log shift, − was no binding.

[3] = molecular target: T1, human full length aminopeptidase N (APN, aka CD13) (Homo sapiens, UniProt P15144); assay: Flow cytometry of nanobody phage on HEK293T cells transfected with membrane protein cDNA; format: binding; settings: nanobody-expressing phage
T1 construct: expressed in transfected cells; host or cells: HEK293T
T1 sequence (P15144 whole entry): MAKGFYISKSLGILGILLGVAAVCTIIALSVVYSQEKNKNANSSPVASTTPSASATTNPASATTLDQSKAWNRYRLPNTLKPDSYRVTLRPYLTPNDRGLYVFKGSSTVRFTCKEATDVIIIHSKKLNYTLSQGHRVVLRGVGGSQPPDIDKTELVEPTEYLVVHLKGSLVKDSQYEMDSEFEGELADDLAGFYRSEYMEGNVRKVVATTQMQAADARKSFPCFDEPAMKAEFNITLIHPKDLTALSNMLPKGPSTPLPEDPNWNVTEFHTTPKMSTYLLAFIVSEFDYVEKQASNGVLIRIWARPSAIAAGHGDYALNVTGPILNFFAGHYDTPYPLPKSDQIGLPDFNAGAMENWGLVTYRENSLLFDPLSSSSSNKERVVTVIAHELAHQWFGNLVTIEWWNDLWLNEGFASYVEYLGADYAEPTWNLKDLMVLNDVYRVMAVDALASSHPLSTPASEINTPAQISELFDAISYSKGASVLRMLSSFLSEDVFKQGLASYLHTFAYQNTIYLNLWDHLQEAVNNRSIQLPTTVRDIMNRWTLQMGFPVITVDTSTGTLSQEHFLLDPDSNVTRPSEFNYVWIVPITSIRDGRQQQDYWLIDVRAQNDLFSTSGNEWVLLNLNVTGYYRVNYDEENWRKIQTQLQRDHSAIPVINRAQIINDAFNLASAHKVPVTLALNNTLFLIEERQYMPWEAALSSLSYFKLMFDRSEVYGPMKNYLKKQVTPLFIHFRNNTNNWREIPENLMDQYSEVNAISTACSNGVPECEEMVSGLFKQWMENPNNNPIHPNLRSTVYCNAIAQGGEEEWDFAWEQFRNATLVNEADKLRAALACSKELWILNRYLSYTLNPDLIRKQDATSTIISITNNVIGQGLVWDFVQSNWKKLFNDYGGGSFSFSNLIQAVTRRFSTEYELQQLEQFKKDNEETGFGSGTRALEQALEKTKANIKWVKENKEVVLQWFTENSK
Excerpt: (§2) FIGS. 4A-4F are series of images and graphs illustrating the identification of CD13 as a target to kill AML cells by CAR T cells. FIG. 4A: Experiment schema: About 3000 cell membrane protein cDNAs were purified and transfected into HEK293T cells separately, followed by flow analysis with the nanobodies expressing phage and FITC-labeled secondary antibody against phage M13 protein. FIG. 4B: Flow analysis of nanobodies binding to the HEK293T cells with CD13 overexpression. FIG. 4C: CD13 cDNA expression confirmed in HEK293T cells by western blot. FIG. 4D: Western blot to confirm the gRNA/CRISPR guided CD13 knockout effect in THP-1 cells. Three independent gRNAs were transduced into THP-1 separately, followed by puromycin selection and single individual clone expansion. FIG. 4E: Flow analysis of Nb157 or Nb163 binding CD13 knockout THP-1 cells. FIG. 4F: Killing assay of Nbs CAR T cells to the THP-1 wild type (wt) or THP-1 cd13-ko.
To identify the protein antigens of the isolated nanobodies, about 3000 human cell membrane protein cDNAs were prepared and transfected into HEK293T cells individually, followed by flow cytometry detection with the nanobody-expressing phage and FITC-labeled secondary antibody against phage M13 protein (FIG. 4A). […] As a confirmation, human CD13 cDNA expression was also shown by western blot (FIG. 4C). CD13 is preferentially expressed in acute myeloid blast cells.

[4] = tested on: CD13 knockout THP-1 cells; assay: Flow analysis of Nb binding to CD13 knockout THP-1 cells; set-up: species or system human; settings: flow cytometry
Excerpt: as §2
To knockout CD13 in THP-1 cell line, LentiCRISPRv2.0 vector was applied according to the protocol (Sanjana, N. E. et al, (2014) Nature methods 11, 783-784). sgRNA targeting human CD13 were listed as below, sgCD13-1 […] (SEQ ID NO: 14), sgCD13-2 […] (SEQ ID NO: 15), […]. Plasmids were confirmed by sequencing and packaged into lentivirus, followed by infecting THP-1 cells. […]

[5] = tested on: patient-derived AML cells; assay: Flow analysis of Nb binding to patient derived AML cells; set-up: species or system human; settings: patient AML2844
Protocol: FIGS. 5A-5B: Both Nb157 and Nb163 recognized the patient derived AML cells by flow analysis. FIGS. 5C-5D: Both Nb157 and Nb163 CAR T cells specifically killed the patient derived AML cells in vitro in a dose dependent manner. […] In brief, 20 million of Patient derived AML cells were injected into NSG mouse, followed by 3 million of Nb157 CAR T cells or UTD T cells treatment. The survival of mice was monitored. Each group n=10. FIGS. 5F-5I: Patient derived AML in NSG bone marrow and spleen were monitored after Nb157 CAR T cell treatment by staining with anti-human CD45/CD3/CD33, followed by flow cytometry analysis. FIGS. 5J-5K: At the end points of each group of experiment, the mice spleens were harvested and fixed by paraformaldehyde, followed by immunofluorescence staining of the anti-human CD3/CD33 and DAPI (Nuclear).
To further determine whether the Nb157 CAR T cells can also kill the patient-derived AML cells, CD13 expression of the leukemia cells from patient AML2844 was examined. […] Thereafter, the therapeutic effect of the CAR T cells on the mice with the patient-derived AML cells was examined. To this end, the NSG mice were transplanted with the primary AML cells, followed by treatment with either control UTD or Nb157 CAR T cells.

THP-1 cells [6] = assay: Killing assay of Nb157-PNE-mediated sCAR system; format: cell-based, human; settings: sCAR T to THP-1 2:1, 16 hours
Excerpt: FIGS. 6A-6H are series of images and graphs depicting that Nb switch-activated CAR T cells eradicate AML in vivo in a controllable manner. FIGS. 6A-6B: Schematic diagram of switchable CAR T system. The Nb157 was expressed and purified by fusing with PNE, a fourteen amino acid peptide, either at N terminal or C terminal of the Nanobody. Primary human T cells were engineered by lentivirus transduction of scFv CAR that recognized PNE specifically. FIG. 6C: Test the affinity of Nb157, Nb157-N-PNE or Nb157-C-PNE against THP-1 cells by flow cytometry analysis. FIG. 6D: Killing assay of Nb157-PNE-mediated sCAR system against THP-1 cells in series of switch concentrations. The ratio of sCAR T to THP-1 was 2:1 and assay was performed after 16 hours incubation. FIG. 6E: 10 million THP-1 cells were transplanted into NSG mice subcutaneously to form the 150 mm^3 of tumors. […] The engraftment volumes were monitored by measuring the lengths and widths of the tumors. […] The primary leukemia or CAR T cells in the mouse peripheral blood were monitored by staining with CD33 or CD3 fluorescence labeled antibodies.
Killing assays were performed as previously described (Cao, L. F. et al. (2010) Cytometry A 77, 534-545). […] Quantification were calculated by either Countbright beads or volume.

CD13-/- THP-1 cell lines = assay: Killing assay on THP-1 cd13-ko cells; format: cell-based, human; settings: THP-1 cd13-ko vs wild type
Excerpt: as §2
Killing assays were performed as previously described (Cao, L. F. et al. (2010) Cytometry A 77, 534-545). In brief, target cells were labeled by anti-CD33 (BD) for detecting cell number with flow cytometry analysis or labeled by CellTrace Far Red for tracing cell division. Target cells were incubated with effector T cells for 16 hrs at a series of ratios. […] Quantification were calculated by either Countbright beads or volume. […]

BON cells = assay: Flow cytometry binding of VLV or VLV-DM1 to BON cells; set-up: species or system human
Protocol: (§3) Scale bar: […]. […] Scale bar: […].

QGP1 cells = assay: Flow cytometry binding of VLV or VLV-DM1 to QGP1 cells
Protocol: as §3

Molecule	binding to THP-1 cells (THP-1 cells [1])	binding to Jurkat cells (Jurkat cells)	binding to K562 cells (K562 cells)	binding to other AML cell lines [2]	binding to cells transfected with human CD13 [3]	binding after CD13 knockout in THP-1 [4]	recognition of patient-derived AML cells [5]	switch-triggered killing of THP-1 cells by sCAR T cells (THP-1 cells [6])	killing of target cells after CD13 knockout (CD13-/- THP-1 cell lines)	binding to BON cells (BON cells)	binding to QGP1 cells (QGP1 cells)
B1	specifically bound THP-1 cells	but not Jurkat or K562 cells	but not Jurkat or K562 cells	also bound other AML cell lines like HL60, NB4, and U937	bound the cells transfected with human full length aminopeptidase N	CD13 knockout abrogated the binding	detected the CD13 expression on the primary AML cells	–	–	–	–
B2	–	–	–	–	–	–	–	slightly reduced the cytolysis-inducing activity	–	–	–
B3	specifically bound THP-1 cells	but not Jurkat or K562 cells	but not Jurkat or K562 cells	also bound other AML cell lines like HL60, NB4, and U937	bound the cells transfected with human full length aminopeptidase N	CD13 knockout abrogated the binding	detected the CD13 expression on the primary AML cells	–	diminished the killing of Nb163 to the targets significantly, but cannot abrogated the effect completely	–	–
B4	–	–	–	–	–	–	–	–	–	bound to BON cells	but not QGP1 cells
